# Experimental data reported in PMC8395645.
# Molecular target: FGFR2b Ig-like domains 2-3 (UniProt P21802-3 140-369)
# Experiment: ITC
binder,measurement,value
TGTTGGGAGGGGATGGGACGTATAGGTAAGGGCGGGGGTGGACACG (structured_DNA) [Apt_46],Kd,46.3 ± 16.2 nM
